Assay results: PMC12051018, “Purification and characterization of a thermophilic NAD ^+‐dependent lactate dehydrogenase from Moorella thermoacetica” (FEBS Open Bio, 2025)

B1: LDH from M. thermoacetica (Moorella thermoacetica ATCC 39073) (protein)
chain: MGLQGPAKVAIIGTGYVGSSTAFALLFSPLVKEMVLVDVNHAKAEGEAMDLAHAATLIRPVEVYAGRPADCAGSRIVIFTAGANQQPGQTRLDLIHRNTAIVRQALPEILHYCPEALVLMVANPVDILTYVAWKISGLPENRVLGSGTVLDSARFRHLLSRHYRVDPRNIHAYVIGEHGDTEVPVWSLANVAGVDLEEFYLMDGMREEEAFRVEISHQVREAAYEIIERKGVTSYGVALALSRIIECILRNEHSVLTISSVIRDLYGIDGEVALSLPCLVGNEGREKVLAIPLVAREKAALKHSATTLQQLIAQLSL
notes: native full-length, purified from lactate-grown cells; native 60 kDa, dimer
B2: NAD+-dependent lactate dehydrogenase from Moorella thermoacetica (enzyme, Moorella thermoacetica (DSM 521), UniProt Q2RHG3 1-317, looked up)
chain: B1 chain
notes: L-lactate dehydrogenase of Moorella thermoacetica DSM 521, product of the ldh gene (954 bp, predicted mass 34.6 kDa), identified by peptide mass fingerprinting; Native enzyme purified from the organism; on SDS-PAGE about 34 kDa, which fits the predicted monomer; also called LDH; gene product of the ldh gene

Columns and labels:
purified protein [1] = substrate: CC(=O)C(=O)O; assay: purified protein; format: biochemical, Neomoorella thermoacetica; conditions: 0.5 mM NADH, 50 mM Tris/HCl pH 8, 10 mM NaCl, 4 mM DTE, 65 °C, anoxic
purified protein [2] = substrate: C[C@H](O)C(=O)O; assay: purified protein; format: biochemical, Neomoorella thermoacetica; conditions: 2 mM NAD+, 50 mM Tris/HCl pH 8, 10 mM NaCl, 4 mM DTE, 65 °C, anoxic
purified protein [3] = substrate: NC(=O)C1=CN([C@@H]2O[C@H](COP(=O)(O)OP(=O)(O)OC[C@H]3O[C@@H](n4cnc5c(N)ncnc54)[C@H](O)[C@@H]3O)[C@@H](O)[C@H]2O)C=CC1; assay: purified protein; format: biochemical, Neomoorella thermoacetica; conditions: 1 mM pyruvate, 50 mM Tris/HCl pH 8, 10 mM NaCl, 4 mM DTE, 65 °C, anoxic, varied: cofactor
purified protein [4] = substrate: NC(=O)c1ccc[n+]([C@@H]2O[C@H](COP(=O)(O)OP(=O)(O)OC[C@H]3O[C@@H](n4cnc5c(N)ncnc54)[C@H](O)[C@@H]3O)[C@@H](O)[C@H]2O)c1; assay: purified protein; format: biochemical, Neomoorella thermoacetica; conditions: 20 mM L-lactate, 50 mM Tris/HCl pH 8, 10 mM NaCl, 4 mM DTE, 65 °C, anoxic, varied: cofactor
[5] = molecular target: the molecule itself; assay: SEC; calibrated Superose 6 column, buffer 4 (50 mM Tris/HCl pH 7.5, 150 mM NaCl, 20 mM MgSO4, 20% glycerol, 4 mM DTE, 4 uM resazurin), size standards aprotinin, carbonic anhydrase, ovalbumin, conalbumin; native size 60 kDa against a 34 kDa monomer

Protein | Km (purified protein [1]) | Km (purified protein [2]) | Km (purified protein [3]) | Km (purified protein [4]) | stoichiometry N [5]
B1 | 1000 µM | 20000 µM | 100 µM | 500 µM | –
B2 | – | – | – | – | 2
